Laboratory results published in patent US20120034215A1 (Daiichi Sankyo, published 2012).
Positions count from the first letter of the chain named.

B1: MOR07923 (human IgG1) (antibody, V domains shown)
VH: QVQLVESGGGLVQPGGSLRLSCAASGFTFNSYSMSWVRQAPGKGLEWVSYISSRSSTTYYADSVKGRFTISRDNSKNTLYLQMNSLRAEDTAVYYCARGYFHGMDYWGQGTLVTVSS
VL: DIVLTQSPATLSLSPGERATLSCRASQSVSFDYLGWYQQKPGQAPRLLIYGASNRATGVPARFSGSGSGTDFTLTISSLEPEDFATYYCFQYLIVPFTFGQGTKVEIKR
B2: MOR07924 (human IgG1) (antibody, V domains shown)
VH: B1 VH
VL: B1 VL with F90Q, L93N, V95N
B3: MOR07692 (human IgG1) (antibody, V domains shown)
VH: B1 VH
VL: B1 VL with F90Q, L93Y, I94N, V95M, F97Y
B4: MOR07925 (human IgG1) (antibody, V domains shown)
VH: B1 VH
VL: B1 VL with F90L, L93F, I94N, V95P, F97H
B5: MOR07926 (human IgG1) (antibody, V domains shown)
VH: B1 VH
VL: B1 VL with Y92A, V95M

Biological target: T1, cynomolgus monkey MST1R with N-terminal Flag tag, expressed on HEK293T cells (cynomolgus monkey, UniProt Q04912 27-1400 (human entry))
T1 construct: ORF cloned excluding the signal peptide region; also called cynomolgus MST1R; not shown: N-terminal Flag tag from vector pFLAG-myc-CMV-19 (Sigma)
T1 chain: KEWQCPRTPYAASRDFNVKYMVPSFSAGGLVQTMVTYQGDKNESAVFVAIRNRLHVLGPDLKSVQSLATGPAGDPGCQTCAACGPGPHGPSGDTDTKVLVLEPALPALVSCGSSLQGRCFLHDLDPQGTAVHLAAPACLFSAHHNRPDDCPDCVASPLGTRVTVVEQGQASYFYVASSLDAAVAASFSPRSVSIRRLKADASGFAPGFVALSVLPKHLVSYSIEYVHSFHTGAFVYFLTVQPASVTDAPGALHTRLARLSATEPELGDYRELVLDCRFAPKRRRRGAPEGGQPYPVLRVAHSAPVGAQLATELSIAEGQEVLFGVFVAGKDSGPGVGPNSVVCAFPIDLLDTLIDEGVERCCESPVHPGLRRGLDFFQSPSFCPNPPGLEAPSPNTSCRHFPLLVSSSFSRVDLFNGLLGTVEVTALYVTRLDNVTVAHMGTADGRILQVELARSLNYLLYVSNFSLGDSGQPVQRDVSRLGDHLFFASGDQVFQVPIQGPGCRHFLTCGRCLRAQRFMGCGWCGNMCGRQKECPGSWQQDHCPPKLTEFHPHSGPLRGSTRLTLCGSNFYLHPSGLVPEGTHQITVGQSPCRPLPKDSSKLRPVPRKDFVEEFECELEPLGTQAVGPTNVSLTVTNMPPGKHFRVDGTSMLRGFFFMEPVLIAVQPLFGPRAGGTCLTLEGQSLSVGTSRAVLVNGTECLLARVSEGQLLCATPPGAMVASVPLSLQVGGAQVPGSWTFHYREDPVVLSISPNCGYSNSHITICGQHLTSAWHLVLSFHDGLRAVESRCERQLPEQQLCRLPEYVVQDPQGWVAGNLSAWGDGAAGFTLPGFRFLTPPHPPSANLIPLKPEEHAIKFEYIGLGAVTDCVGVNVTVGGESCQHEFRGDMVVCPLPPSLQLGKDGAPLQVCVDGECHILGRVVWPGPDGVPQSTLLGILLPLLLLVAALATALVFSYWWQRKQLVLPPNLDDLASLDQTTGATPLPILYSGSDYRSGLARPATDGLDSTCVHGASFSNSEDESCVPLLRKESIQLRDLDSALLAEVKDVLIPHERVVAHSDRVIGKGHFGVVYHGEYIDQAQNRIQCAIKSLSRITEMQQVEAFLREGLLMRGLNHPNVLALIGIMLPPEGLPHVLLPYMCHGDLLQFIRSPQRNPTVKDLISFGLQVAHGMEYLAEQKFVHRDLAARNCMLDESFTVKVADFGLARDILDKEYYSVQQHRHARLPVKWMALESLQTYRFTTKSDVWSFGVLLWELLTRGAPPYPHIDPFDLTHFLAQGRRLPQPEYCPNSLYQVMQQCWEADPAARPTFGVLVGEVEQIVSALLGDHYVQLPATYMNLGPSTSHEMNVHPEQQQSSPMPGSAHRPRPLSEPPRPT
Assay: flow cytometry on transfected HEK293T cells, 2 ug/ml IgG1
Protocol: Cells (5×10⁵ cells/well) were incubated with Fab or IgG antibodies at the indicated concentrations in 50 μl FACS buffer (PBS, 5% FCS) for 60 min at 4° C. in round bottom 96-well culture plates (Corning). Cells were washed twice and then incubated with Fluorescein Isothiocyanate (FITC) conjugated detection antibody for 30 min at 4° C. Cells were washed again, resuspended in 0.3 ml FACS buffer and then analyzed by flow cytometry in a Cytomics FC500 (Beckman Coulter, Inc.). Data were analysed via FlowJo software (Tomy digital biology Co., Ltd.). Polyclonal goat anti-hMSP R IgG (R&D systems) or anti-FLAG M2 antibody (Sigma) was used as a positive control and MOR03207 (anti-lysozyme) antibody was used as a negative control.
FACS-analysis of MST1R ortholog-expressing cells: Human MST1R (cDNA nucleotide sequence is shown as GenBank Accession No: NM_{—}002447.2), cynomolgus monkey MST1R and mouse MST1R (cDNA nucleotide sequence is shown as GeneBank Accession No: NM_{—}009074.1) expression vector containing N-terminal Flag tag (pFLAG-myc-CMV-19, Sigma) were constructed. cDNA encoding cynomolgus monkey MST1R was amplified by PCR using cynomolgus monkey stomach cDNA as a template with forward and reverse primers having nucleotide sequences of SEQ ID NO: 34 and 35, respectively. By sequencing analysis of PCR product, the cynomolgus MST1R ORF nucleotide sequence was identified as shown in SEQ ID NO: 36. The corresponding amino acid sequence was shown in SEQ ID NO: 37. Then human, cynomolgus monkey and mouse MST1R ORF cDNA, excluding signal peptide regions, were amplified using respective forward and reverse primers having nucleotide sequences of SEQ ID NO: 38 and 39 (human), 40 and 41 (cynomolgus monkey), and 42 and 43 (mouse) with appropriate cloning sites and then cloned into pFLAG-myc-CMV-19. An amplified human MST1R fragment encodes amino acids corresponding to GenBank Accession No: NP_{—}002438.2 (SEQ ID NO: 45). A Mouse MST1R fragment encodes amino acids corresponding to GenBank Accession No: NP_{—}033100.1 (SEQ ID NO: 47) except for those amino acid differences at positions: 688 (Leu to Pro), 713 (Ile to Val), 714 (Ala to Gly) and 719 (Ala to Val). These expression vectors were transfected into HEK293T cells. For FACS-analysis, cells were incubated with 2 μg/ml primary antibodies followed by incubation with FITC-labeled secondary antibody as described above.

Binding result, binds:
B1, B2, B3, B4, B5
